What was measured:
[1] = biological target: 16A-cys(i)-less (TMEM16A with all cysteines of the cytosolic portion replaced with serines); assay: cross-linking; harvested transfected HEK-293 cells in PBS with 300 uM 1,5-pentanediyl bismethanethiosulfonate, 15 min, room temperature; stopped with Laemmli buffer or reversed with 33 mM DTT; SDS-PAGE and Western blot with SP31 antibody
[2] = biological target: 16A-cys(i)-less R494C/K921C; assay: as above
[3] = biological target: TMEM16A fused to a fluorescent protein (eGFP-TMEM16A, TMEM16A-eGFP, TMEM16A-mCherry); assay: FRET or BRET; acceptor photobleaching FRET, confocal microscope, HEK-293 cells co-transfected with eGFP-TMEM16A (donor) and TMEM16A-mCherry (acceptor): NT-CT configuration

TMEM16A fused to a fluorescent protein (eGFP-TMEM16A, TMEM16A-eGFP, TMEM16A-mCherry), sequence (Q5XXA6 whole entry, the tested form may be a part): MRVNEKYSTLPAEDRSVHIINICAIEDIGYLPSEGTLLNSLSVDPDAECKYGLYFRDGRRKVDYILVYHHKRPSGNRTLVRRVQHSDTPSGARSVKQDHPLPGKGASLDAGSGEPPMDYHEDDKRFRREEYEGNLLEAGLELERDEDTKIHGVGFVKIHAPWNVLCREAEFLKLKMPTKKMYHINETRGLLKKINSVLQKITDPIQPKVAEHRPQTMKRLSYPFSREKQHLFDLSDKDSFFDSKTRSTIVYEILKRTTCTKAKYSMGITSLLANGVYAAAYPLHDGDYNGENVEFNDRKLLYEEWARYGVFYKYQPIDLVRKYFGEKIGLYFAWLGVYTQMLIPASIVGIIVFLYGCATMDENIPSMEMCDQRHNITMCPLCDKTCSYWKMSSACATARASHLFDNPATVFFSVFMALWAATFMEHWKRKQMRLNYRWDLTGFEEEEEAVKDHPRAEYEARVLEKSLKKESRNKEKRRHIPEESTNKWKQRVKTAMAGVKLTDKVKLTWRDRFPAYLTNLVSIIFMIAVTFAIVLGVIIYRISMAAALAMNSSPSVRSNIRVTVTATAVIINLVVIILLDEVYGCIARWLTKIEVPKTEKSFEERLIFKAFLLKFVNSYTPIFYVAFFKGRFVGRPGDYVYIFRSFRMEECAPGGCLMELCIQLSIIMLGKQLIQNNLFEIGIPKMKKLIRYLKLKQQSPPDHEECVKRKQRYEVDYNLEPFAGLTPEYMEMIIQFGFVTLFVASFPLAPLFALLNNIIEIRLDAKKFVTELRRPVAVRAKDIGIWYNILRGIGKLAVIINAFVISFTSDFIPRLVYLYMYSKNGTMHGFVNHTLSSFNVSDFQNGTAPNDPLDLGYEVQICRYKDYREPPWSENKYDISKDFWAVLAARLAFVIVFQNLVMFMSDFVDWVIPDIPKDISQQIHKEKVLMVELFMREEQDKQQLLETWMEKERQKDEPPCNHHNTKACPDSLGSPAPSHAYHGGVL

**Q.** How did the stoichiometry N [1] turn out when “16A-cys(i)-less (TMEM16A with all cysteines of the cytosolic portion replaced with serines) (natural protein)” was run?
**A.** 2

**Q.** Which stoichiometry N [2] does the source give for “16A-cys(i)-less R494C/K921C (natural protein)” here?
**A.** 2

**Q.** With “TMEM16A fused to a fluorescent protein (eGFP-TMEM16A, TMEM16A-eGFP, TMEM16A-mCherry) (natural protein)” as the substance, how does the FRET efficiency [3] read?
**A.** 7.44%
